This is an account of results in the supplement of paper PMC10724198.

± gives the standard deviation of the averaged measurements.

The subject of series [1] is Saccharomyces cerevisiae. Briefly: protein stability index of tFT-peptide fusion (C-terminal peptide) (PSI (0-1 scale)); higher = more stable (slower turnover). How it is done: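 MPS profiling in S. cerevisiae of the tFT-X12 degron library: putative degron peptides plus stable controls, 12 aa, fused to the C-terminus of a sfGFP-mCherry timer. Cells are FACS-sorted into 8 mCherry/sfGFP bins and deep-sequenced. PSI runs from 0 (unstable) to 1 (stable). Backgrounds are wild type, das1Δ and doa10Δ at 30 °C, and wild type, das1Δ, cdc34-1 and cdc53-1 at 37 °C; 2-3 technical replicates each.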

Series [2] relates to Saccharomyces cerevisiae. Described as above. The following applies: genetic background: wild type; temperature: 30 C.
The mark [3] stands for this setting: genetic background: cdc34-1, temperature: 37 C.
Where [4] appears, read: genetic background: cdc53-1, temperature: 37 C.
Setting [5] is: genetic background: das1 deletion, temperature: 30 C.
The mark [6] stands for this setting: genetic background: das1 deletion, temperature: 37 C.
Where [7] appears, read: genetic background: doa10 deletion, temperature: 30 C.
The mark [8] stands for this setting: genetic background: wild type, temperature: 30 C.
Where [9] appears, read: genetic background: wild type, temperature: 37 C.
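Further: PSI is a weighted mean of sequencing reads over stability bins, variants kept only with over 10 reads, mCherry proximal and sfGFP distal, peptide attached via GGGS linker.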

Take TVRVWPRNLWFS: the protein stability index in series [1] (setting [3]) was 0.519 ± 0.048; in series [1] (setting [4]) it was 0.677 ± 0.017; in series [1] (setting [5]) it was 0.639 ± 0.021; in series [1] (setting [6]), 0.7273 ± 0.0018; in series [1] (setting [7]), 0.111 ± 0.0029; in series [1] (setting [8]), 0.111 ± 0.021. Besides, the values for the protein stability index in series [1] (setting [9]) and in series [2] were 0.235 ± 0.031 and 0.176 ± 0.021, respectively.

As for TWGGGRVSLGVG, the protein stability index in series [1] (setting [3]) turned out to be 0.313 ± 0.029; in series [1] (setting [4]) it was 0.3966 ± 0.0028; in series [1] (setting [5]), 0.326 ± 0.011; in series [1] (setting [6]), 0.405 ± 0.018; in series [1] (setting [7]) it was 0.3442 ± 0.0015; in series [1] (setting [8]), 0.359 ± 0.044. The protein stability index is 0.401 ± 0.022 in series [1] (setting [9]) and 0.328 ± 0.016 in series [2].

With TYHRSYLLATVV, the protein stability index worked out at 0.49857 ± 0.00019 in series [1] (setting [3]); 0.55 ± 0.08 in series [1] (setting [4]); 0.378 ± 0.028 in series [1] (setting [5]); 0.543 ± 0.016 in series [1] (setting [6]); 0.181 ± 0.0023 in series [1] (setting [7]); 0.224 ± 0.024 in series [1] (setting [8]). Moreover, the protein stability index in series [1] (setting [9]) came to 0.331 ± 0.00026; in series [2], 0.314 ± 0.025.

For VACTCILVALVV, the protein stability index was determined as 0.059 ± 0.0069 in series [1] (setting [3]); 0.164 ± 0.02 in series [1] (setting [4]); 0.0772 ± 0.027 in series [1] (setting [5]); 0.198 ± 0.0045 in series [1] (setting [6]); 0.0424 ± 0.0038 in series [1] (setting [7]); 0.0686 ± 0.035 in series [1] (setting [8]). The protein stability index in series [1] (setting [9]) amounted to 0.165 ± 0.005; in series [2] it was 0.142 ± 0.035.

As to VAFLYCHFFYCI, the protein stability index was determined as 0.502 ± 0.063 in series [1] (setting [3]); 0.531 ± 0.013 in series [1] (setting [4]); 0.391 ± 0.029 in series [1] (setting [5]); 0.53095 ± 0.00027 in series [1] (setting [6]); 0.342 ± 0.0038 in series [1] (setting [7]); 0.37 ± 0.014 in series [1] (setting [8]). For the same sequence, the protein stability index was determined as 0.47 ± 0.009 in series [1] (setting [9]) and 0.415 ± 0.013 in series [2].

As for VAVFFFCRVFFL, the protein stability index in series [1] (setting [3]) is 0.248 ± 0.062; in series [1] (setting [4]), 0.339 ± 0.005; in series [1] (setting [5]), 0.221 ± 0.037; in series [1] (setting [6]), 0.412 ± 0.0042; in series [1] (setting [7]), 0.186 ± 0.02; in series [1] (setting [8]), 0.211 ± 0.024. In addition, the protein stability index in series [1] (setting [9]) was 0.318 ± 0.04; in series [2], 0.289 ± 0.026.

With VCCYILFFLFPV, the protein stability index in series [1] (setting [3]) came out at 0.401 ± 0.0048; in series [1] (setting [4]), 0.522 ± 0.008; in series [1] (setting [5]), 0.349 ± 0.025; in series [1] (setting [6]), 0.568 ± 0.024; in series [1] (setting [7]), 0.322 ± 0.0058; in series [1] (setting [8]), 0.337 ± 0.026. In addition, the protein stability index in series [1] (setting [9]) turned out to be 0.506 ± 0.018; in series [2], 0.418 ± 0.011.

With VCLRICLVTLMM, the protein stability index was found to be 0.3 ± 0.019 in series [1] (setting [3]); 0.444 ± 0.011 in series [1] (setting [4]); 0.284 ± 0.032 in series [1] (setting [5]); 0.4615 ± 0.0026 in series [1] (setting [6]); 0.2405 ± 0.0017 in series [1] (setting [7]); 0.261 ± 0.033 in series [1] (setting [8]). Moreover, the protein stability index came out at 0.4126 ± 0.0014 in series [1] (setting [9]) and 0.428 ± 0.03 in series [2].

Regarding VCPCCPYVMIAG, the protein stability index in series [1] (setting [3]) came to 0.598 ± 0.061; in series [1] (setting [4]), 0.641 ± 0.04; in series [1] (setting [5]) it was 0.498 ± 0.027; in series [1] (setting [6]), 0.647 ± 0.0012; in series [1] (setting [7]) it was 0.318 ± 0.0013; in series [1] (setting [8]), 0.336 ± 0.043. In addition, the figures for the protein stability index in series [1] (setting [9]) and in series [2] were 0.494 ± 0.0062 and 0.489 ± 0.018, respectively.
